Laboratory results as given in the supplement of paper PMC9112550, “Optimization of the antimicrobial peptide Bac7 by deep mutational scanning” (BMC Biology, 2022).

Test system: Escherichia coli TOP10
Test: shrunken log2 fold change of peptide-encoding DNA abundance (4.5 h post-induction vs induction); higher = less antimicrobial activity (less host growth inhibition)
Conditions: time post-induction: 4.5 h; library: site-saturation at positions 5, 18, 19, 20
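Also: peptides expressed intracellularly from a pBAD plasmid library in pooled LB shake-flask culture, induced with 0.3% L-arabinose, DNA abundance read by NGS, three biological replicates, DESeq2 with apeglm shrinkage.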

| Sequence | shrunken log2 fold change |
| --- | --- |
| RRIRERPPRLPRPRPRPNIKPRP | -0.788 |
| RRIRWRPPRLPRPRPRPRRNPRP | 0.0585 |
| RRIRTRPPRLPRPRPRPHLPPRP | 0.236 |
| RRIRPRPPRLPRPRPRPESPPRP | 0.161 |
| RRIRFRPPRLPRPRPRPKHKPRP | -0.265 |
| RRIRNRPPRLPRPRPRPWMVPRP | 0.131 |
| RRIRKRPPRLPRPRPRPNEHPRP | 0.448 |
| RRIRSRPPRLPRPRPRPAIGPRP | -0.0608 |
| RRIRQRPPRLPRPRPRPTQKPRP | 0.0237 |
| RRIRVRPPRLPRPRPRPFQGPRP | -0.0641 |
| RRIRKRPPRLPRPRPRPIERPRP | 0.11 |
| RRIRGRPPRLPRPRPRPNGEPRP | 1.81 |
| RRIRVRPPRLPRPRPRPMAHPRP | 0.00201 |
| RRIRHRPPRLPRPRPRPMPCPRP | -0.105 |
| RRIRWRPPRLPRPRPRPSVMPRP | -0.333 |
| RRIRIRPPRLPRPRPRPSCGPRP | -0.174 |
| RRIRSRPPRLPRPRPRPIMTPRP | 0.164 |
| RRIRARPPRLPRPRPRPIMEPRP | 0.0783 |
| RRIRFRPPRLPRPRPRPPPMPRP | 1.17 |
| RRIRFRPPRLPRPRPRPPHIPRP | -0.21 |
| RRIRSRPPRLPRPRPRPNWSPRP | -0.249 |
| RRIRRRPPRLPRPRPRPENCPRP | 0.0654 |
| RRIRKRPPRLPRPRPRPDEHPRP | 0.0292 |
| RRIRDRPPRLPRPRPRPECCPRP | 0.828 |
| RRIRVRPPRLPRPRPRPDIQPRP | 1.23 |

| Sequence | shrunken log2 fold change |
| --- | --- |
| RRIRQRPPRLPRPRPRPYRTPRP | 0.0218 |
| RRIRVRPPRLPRPRPRPRYGPRP | -0.392 |
| RRIRFRPPRLPRPRPRPRLTPRP | -0.212 |
| RRIRLRPPRLPRPRPRPGTNPRP | -0.0983 |
| RRIRYRPPRLPRPRPRPLQMPRP | -0.209 |
| RRIRHRPPRLPRPRPRPPNMPRP | -0.0135 |
| RRIRWRPPRLPRPRPRPCNIPRP | -0.133 |
| RRIRCRPPRLPRPRPRPVFLPRP | -0.429 |
| RRIRFRPPRLPRPRPRPNQCPRP | -0.511 |
| RRIRVRPPRLPRPRPRPHGHPRP | -0.0491 |
| RRIRSRPPRLPRPRPRPRWDPRP | 0.197 |
| RRIRNRPPRLPRPRPRPQWYPRP | -0.209 |
| RRIRERPPRLPRPRPRPGYGPRP | -0.165 |
| RRIRRRPPRLPRPRPRPICYPRP | -0.0102 |
| RRIRPRPPRLPRPRPRPCYYPRP | -0.436 |
| RRIRYRPPRLPRPRPRPICPPRP | -0.471 |
| RRIRNRPPRLPRPRPRPAHPPRP | 0.307 |
| RRIRGRPPRLPRPRPRPWIHPRP | 0.0779 |
| RRIRTRPPRLPRPRPRPNNQPRP | -0.665 |
| RRIRIRPPRLPRPRPRPSMDPRP | -0.353 |
| RRIRMRPPRLPRPRPRPYVTPRP | -0.298 |
| RRIRNRPPRLPRPRPRPVNSPRP | 0.0303 |
| RRIRYRPPRLPRPRPRPPCVPRP | 0.0199 |
| RRIRKRPPRLPRPRPRPPRKPRP | 0.821 |
| RRIRARPPRLPRPRPRPMQLPRP | 0.206 |

| Sequence | shrunken log2 fold change |
| --- | --- |
| RRIRDRPPRLPRPRPRPNTWPRP | 0.23 |
| RRIRRRPPRLPRPRPRPNQPPRP | -0.0317 |
| RRIRSRPPRLPRPRPRPLCKPRP | -0.137 |
| RRIRDRPPRLPRPRPRPTTNPRP | 0.411 |
| RRIRGRPPRLPRPRPRPTRFPRP | 0.19 |
| RRIRRRPPRLPRPRPRPEEGPRP | 0.00715 |
| RRIRMRPPRLPRPRPRPHPEPRP | 0.414 |
| RRIRQRPPRLPRPRPRPESAPRP | 0.208 |
| RRIRIRPPRLPRPRPRPAWRPRP | 0.263 |
| RRIRHRPPRLPRPRPRPERRPRP | 0.0748 |
| RRIRTRPPRLPRPRPRPIWYPRP | -0.601 |
| RRIRMRPPRLPRPRPRPYRAPRP | -0.691 |
| RRIRKRPPRLPRPRPRPETHPRP | 0.736 |
| RRIRNRPPRLPRPRPRPDFNPRP | -0.186 |
| RRIRKRPPRLPRPRPRPKIFPRP | 0.0692 |
| RRIRRRPPRLPRPRPRPIRYPRP | 0.0578 |
| RRIRMRPPRLPRPRPRPWDCPRP | 0.00902 |
| RRIRMRPPRLPRPRPRPQPSPRP | 1.11 |
| RRIRYRPPRLPRPRPRPQKTPRP | -0.0404 |
| RRIRCRPPRLPRPRPRPLINPRP | -0.621 |
| RRIRKRPPRLPRPRPRPYENPRP | -0.517 |
| RRIRKRPPRLPRPRPRPMWSPRP | 0.123 |
| RRIRSRPPRLPRPRPRPAPRPRP | 0.845 |
| RRIRFRPPRLPRPRPRPGHEPRP | -0.196 |
| RRIRERPPRLPRPRPRPMMVPRP | 0.0544 |

| Sequence | shrunken log2 fold change |
| --- | --- |
| RRIRRRPPRLPRPRPRPKMMPRP | 0.296 |
| RRIRQRPPRLPRPRPRPEPRPRP | 0.508 |
| RRIRGRPPRLPRPRPRPSKKPRP | 0.609 |
| RRIRLRPPRLPRPRPRPTWPPRP | 0.705 |
| RRIRTRPPRLPRPRPRPMYCPRP | -0.873 |
| RRIRGRPPRLPRPRPRPLQIPRP | 0.803 |
| RRIRQRPPRLPRPRPRPLSAPRP | 0.0436 |
| RRIRGRPPRLPRPRPRPSLLPRP | 0.547 |
| RRIRQRPPRLPRPRPRPPMLPRP | 0.117 |
| RRIRRRPPRLPRPRPRPQDFPRP | -0.078 |
| RRIRMRPPRLPRPRPRPTSTPRP | 0.16 |
| RRIRMRPPRLPRPRPRPYMAPRP | -0.162 |
| RRIRWRPPRLPRPRPRPKIWPRP | 0.272 |
| RRIRIRPPRLPRPRPRPKDLPRP | 0.000215 |
| RRIRQRPPRLPRPRPRPMYTPRP | -0.639 |
| RRIRWRPPRLPRPRPRPGQWPRP | 0.032 |
| RRIRFRPPRLPRPRPRPSNIPRP | -0.864 |
| RRIRRRPPRLPRPRPRPDKVPRP | -0.053 |
| RRIRDRPPRLPRPRPRPFHIPRP | -0.254 |
| RRIRTRPPRLPRPRPRPRMWPRP | 0.227 |
| RRIRIRPPRLPRPRPRPNFPPRP | -0.144 |
| RRIRCRPPRLPRPRPRPYGQPRP | -1.33 |
| RRIRQRPPRLPRPRPRPWFVPRP | -0.423 |
| RRIRARPPRLPRPRPRPECEPRP | 0.0705 |
| RRIRSRPPRLPRPRPRPQHKPRP | -0.131 |

| Sequence | shrunken log2 fold change |
| --- | --- |
| RRIRWRPPRLPRPRPRPLYWPRP | -0.34 |
| RRIRTRPPRLPRPRPRPVITPRP | 0.0105 |
| RRIRLRPPRLPRPRPRPSAWPRP | -0.0766 |
| RRIRMRPPRLPRPRPRPKCEPRP | 0.52 |
| RRIRIRPPRLPRPRPRPICGPRP | -0.161 |
| RRIRIRPPRLPRPRPRPGPPPRP | 0.221 |
| RRIRYRPPRLPRPRPRPSCGPRP | -0.184 |
| RRIRFRPPRLPRPRPRPDFTPRP | 0.138 |
| RRIRMRPPRLPRPRPRPARRPRP | 1.35 |
| RRIRYRPPRLPRPRPRPQYIPRP | 0.0111 |
| RRIRNRPPRLPRPRPRPEPLPRP | 0.00741 |
| RRIRCRPPRLPRPRPRPCPSPRP | -0.0705 |
| RRIRQRPPRLPRPRPRPQFGPRP | 0.0348 |
| RRIRFRPPRLPRPRPRPTCPPRP | 0.174 |
| RRIRFRPPRLPRPRPRPWHYPRP | -0.146 |
| RRIRRRPPRLPRPRPRPLAVPRP | 0.176 |
| RRIRSRPPRLPRPRPRPVYLPRP | -0.519 |
| RRIRDRPPRLPRPRPRPLDPPRP | 0.0323 |
| RRIRKRPPRLPRPRPRPIIEPRP | -0.0922 |
| RRIRTRPPRLPRPRPRPHDFPRP | 0.0369 |
| RRIRVRPPRLPRPRPRPKLDPRP | 0.116 |
| RRIRVRPPRLPRPRPRPWGFPRP | 0.0189 |
| RRIRLRPPRLPRPRPRPWFVPRP | -0.399 |
| RRIRFRPPRLPRPRPRPDYHPRP | -0.935 |
| RRIRRRPPRLPRPRPRPRFGPRP | 0.438 |

| Sequence | shrunken log2 fold change |
| --- | --- |
| RRIRDRPPRLPRPRPRPKAPPRP | 0.341 |
| RRIRSRPPRLPRPRPRPFDAPRP | -0.279 |
| RRIRCRPPRLPRPRPRPRMEPRP | 0.0253 |
| RRIRKRPPRLPRPRPRPQQCPRP | -0.371 |
| RRIRSRPPRLPRPRPRPTNPPRP | -0.0555 |
| RRIRGRPPRLPRPRPRPRENPRP | 0.978 |
| RRIRYRPPRLPRPRPRPQYHPRP | -0.873 |
| RRIRLRPPRLPRPRPRPIRHPRP | -0.144 |
| RRIRIRPPRLPRPRPRPVRRPRP | 0.377 |
| RRIRDRPPRLPRPRPRPPWIPRP | -0.29 |
| RRIRARPPRLPRPRPRPEIRPRP | 0.132 |
| RRIRDRPPRLPRPRPRPCRGPRP | -0.138 |
| RRIRTRPPRLPRPRPRPIRIPRP | -0.202 |
| RRIRWRPPRLPRPRPRPMNIPRP | -0.541 |
| RRIRDRPPRLPRPRPRPAHKPRP | -0.0546 |
| RRIRCRPPRLPRPRPRPNKAPRP | -0.116 |
| RRIRTRPPRLPRPRPRPIITPRP | -0.645 |
| RRIRSRPPRLPRPRPRPEDQPRP | 0.106 |
| RRIRKRPPRLPRPRPRPPTVPRP | 0.266 |
| RRIRLRPPRLPRPRPRPGRCPRP | 0.341 |
| RRIRCRPPRLPRPRPRPARLPRP | 0.395 |
| RRIRTRPPRLPRPRPRPVPCPRP | -0.0501 |
| RRIRLRPPRLPRPRPRPVKMPRP | -0.327 |
| RRIRPRPPRLPRPRPRPCQMPRP | 0.0359 |
| RRIRTRPPRLPRPRPRPDHWPRP | 0.0335 |
